Experiment [1] concerns the target T1, HCV Core1-169 (hepatitis C virus (HCV-1), UniProt P26664 1-169).
T1 sequence: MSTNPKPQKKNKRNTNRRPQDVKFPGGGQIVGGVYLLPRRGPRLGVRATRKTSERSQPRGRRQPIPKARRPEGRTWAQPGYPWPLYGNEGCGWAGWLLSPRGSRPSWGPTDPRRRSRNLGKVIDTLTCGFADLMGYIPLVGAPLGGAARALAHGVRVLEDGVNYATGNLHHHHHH
Kind of experiment: SPR sandwich, capture mAb C11-7.

Experiment [2] has as its target T1, HCV Core1-169. Kind of experiment: SPR sandwich, capture mAb C11-14.
The target in experiment [3] is T1, HCV Core1-169. In words: SPR sandwich, capture mAb C11-9.
The target in experiment [4] is T1, HCV Core1-169. Kind of experiment: SPR sandwich, capture mAb C11-3.

B1: HCV 208A-874 (antibody, V domains shown)
VH: QVQLQQPGAELVKPGASVKLSCKASGYTLSSYWMHWVKQRPGQGLEWIGEIHPSDSYTSYNQKFKDKATLTVDKSSSTAYMQLSSLTSEDSAVYYCARGGYYRYDEFAYWGQGTLVTVSA
VL: DIVMTQSHKFMSTSIGDRVSITCKASQNVSPAVAWYQQKPGQSPKLLIYSASSRYTGVPDRFTGSGSGTAFTFTISSVQAEDLAVYFCQQHFSTPWTFGGGTMLEIKR
Regarding B1, the expected percent binding with HCV Core1-169 [1], in the experiment with HCV Core1-169 [2], with HCV Core1-169 [3] and with HCV Core1-169 [4] was at most 1% in each case.

B2: HCV 208A-692 (antibody, V domains shown)
VH: QGQMQQSGAELAKPGASVKLSCKTSGFTFSSSYISWLKQKPGQSLEWIAWIFAGTGNTNYNQKFTDKAQLTVDTSSSTAYMQLSSLTTEDSAIYYCAISGTGFTYWGQGTLVTVSA
VL: EVLMTQSPLSLPVSLGDQASISCRSSQSLEHSNGNTYLEWFLQRPGQPPKLLIYKVSSRFSGVPDRFSGSGSGTDFTLKISRVEAEDLGVYYCFQGSHVPFTFGSGTKLAIKR
Turning to B2, the expected percent binding with HCV Core1-169 [1], in the experiment with HCV Core1-169 [2], with HCV Core1-169 [3] and with HCV Core1-169 [4] was at most 1% each time.

B3: HCV 208B-826 (antibody, V domains shown)
VH: DVQLVESGGGLVQAGGSRKLSCAASGFPFSSFGMHWVRQAPEKGLEWVASISSRTSKIYYADNLKGRFTISRDNPKNTLFLQMTSLGSEDTAMYYCVRSVFGNSYWFFDVWGAGTTVTVSS
VL: DIVLTQSPATLSVTPGDRVSLSCRASQRIYNYLHWYQQKSHESPRLLTKYASQSISGIPSRFSGSGSGTDFILTINSVETEDFGMYFCQQSNSWPLTFGAGTKLELRR
On to B3, for which the expected percent binding in the experiment with HCV Core1-169 [1], in the experiment with HCV Core1-169 [2], in the experiment with HCV Core1-169 [3] and with HCV Core1-169 [4] was at most 1% throughout.

B4: HCV 208A-210 (antibody, V domains shown)
VH: QVQLQQSGPELVKPGASMRISCKASGYTFTSYYVHWIKQRPGQGLEWIGCIYPGDVNTDYNEKFKGKATLTADKSSSTAYMQVSTLTSEDSAIYFCVLYYYGSFAYWGQGTLVTVSA
VL: EIVLTQSPAITAASLGQNVTITCRASSSVSYMHWYRQKSGTSPQLWIYEISRRASGVPARFRASGSGTSYSLTISSMEAEDAAIYYCQQWNYPLTFGAGTKLEVKR
For the molecule B4, the expected percent binding in the experiment with HCV Core1-169 [1] was 1.6%; with HCV Core1-169 [2], at most 1%; in the experiment with HCV Core1-169 [3], at most 1%; with HCV Core1-169 [4], 1.2%.

B5: HCV 208B-178 (antibody, V domains shown)
VH: DVKLVESGGGLVKLGGSLKLSCAASGFTFSSYYMSWVRQTPEKRLELVAAINSNGGSTYYPDTVKGRFTISRDNAKNTLYLQMSSLKSEDTALYYCARHGGLGRRDWYFDVWGAGTTVTVSS
VL: DIVLTQSPASLAVSLGQRATISCRASESVDNYGISFMHWYQQKPGQPPKLLIYRASNLESGIPARFSGSGSRTDFTLTINPVETDDVATYYCQQSNKDPFTFGSGAKLEIKR
Take B5: the expected percent binding with HCV Core1-169 [1] is 1.7%; with HCV Core1-169 [2], at most 1%; with HCV Core1-169 [3], at most 1%; with HCV Core1-169 [4], at most 1%.

B6: HCV 208B-327 (antibody, V domains shown)
VH: EVQLVESGGGLVKPGGSLKLSCAASGFTFSDSYMYWVRQTPDQRLEWVATISDGGSYTFYPDSVKGRFTISRDNAQNNLYLQMSSLKSEDTAMYYCASPHAGYFGWFAYWGRGTLVTVSA
VL: DIVMTQAAFSNPVTPGTSVSISCRSSKSLLHSNGITYLYWYLQKPGQSPQLLIYQMSKIASGVPDRFRSSGSGTDFTLRISRVEAADVGVYYCAQNLELPWTFGGGTKLEIKR
Turning to B6, the expected percent binding with HCV Core1-169 [1], with HCV Core1-169 [2], with HCV Core1-169 [3] and with HCV Core1-169 [4] was at most 1% throughout.

B7: HCV 208B-408 (antibody, V domains shown)
VH: EVKLVESGGGLVQPGGSLRLSCASSGFTFTDYYMSWVRQPPGKALEWLGFIRNKAYGYTTEFSASVNGRFTISRDDSQSVPYLQMNTLRAEDSATYYCARVLYYDYGGFAYWGQGTLVTVST
VL: DIQMTQSPASLSASVGETVTITCRASGNIHTYLAWYQQKQGKSPQLLVYNANTLADGVPSRFSGSGSGTQFSLKINSLQPDDFGSYYCQHFWSAPWTFGGGTQLEIKR
Turning to B7, the expected percent binding with HCV Core1-169 [1], with HCV Core1-169 [2], in the experiment with HCV Core1-169 [3] and in the experiment with HCV Core1-169 [4] was at most 1% in each case.

B8: HCV 208B-517 (antibody, V domains shown)
VH: QVQLKQSGPGLVQPSQSLSITCTVSGFSLITHGVHWVRQSPGKGLEWLGVIWSGGSTDYNAAFISRLSISKDTSKSQVFLKMSSLQADDTAIYYCARNGGATAFDYWGQGTTLTVSS
VL: DIVMTQSPATLSVTPGDRVSLSCRASQSISDYLHWYQQKSHESPRLLIKYASQSISGIPSRFRGSGSGSHFTLSINSVEPEDVGVYYCQNGHSFPWTFGGGTKLEIKR
On to B8, for which the expected percent binding in the experiment with HCV Core1-169 [1], with HCV Core1-169 [2], with HCV Core1-169 [3] and with HCV Core1-169 [4] was at most 1% throughout.

B9: HCV 208B-822 (antibody, V domains shown)
VH: QVQLKQSGPGLVQPSQSLSITCTVSGFSLITYGVHWVRQSPGKGLEWLGVIWGGGSTGYNAAFVSRLNITKDNSKSQVFFKMNSLQPDDTAIYYCARNGGATVFDYWGQGTTLTVSS
VL: DIVMTQSPATLSVTPGDRVSLSCRASQTISDYLHWYQQKSHESPRLLIKYASQSISGIPSRFSGSGSGSHFTLSINSVEPEDVGVYYCQNGHSFPWTFGGGTKLEIKR
Turning to B9, the expected percent binding with HCV Core1-169 [1], in the experiment with HCV Core1-169 [2], in the experiment with HCV Core1-169 [3] and in the experiment with HCV Core1-169 [4] was at most 1% throughout.

B10: HCV 208B-911 (antibody, V domains shown)
VH: QVHLQQPGAELVRPGVSVKLSCKASGYTFTTYSINWMKQRPGQGLEWIGNIYPSTSHTNYNQKFRDKATMTVDKSSSTAYMQLSSPTSEDSAVYYCTINAYSMDYWGQGTSVTVSS
VL: QIVLTQSPEIMSASPGEKVTITCSASSSVSFMYWFQQKPGTSPKLWIYITSNLASGVPTRFSGSGSGTSYSLTISRMEAEDAATYYCQQRSSFPYTFGGGTKLEMKR
On to B10, for which the expected percent binding in the experiment with HCV Core1-169 [1], with HCV Core1-169 [2], in the experiment with HCV Core1-169 [3] and in the experiment with HCV Core1-169 [4] was at most 1% each time.

B11: HCV 208B-793 (antibody, V domains shown)
VH: EVKLVESGGGLVQPGGSLKLSCAASGFTFSSYAMSWVRQTPERRLEWVTYISNGGGSTYYSDTVKGRFTFSRDNAKNTLYLQMSSLKSEDTAMYYCARHGLGRTGFASWGQGTLVTVSA
VL: DIVMTQSHKFMSTSVGDRVSITCKASQDVGTAVAWYQQKPGQSPKLLIYWASTRHTGVPDRFTGSGSGTDFTLTISNVQSEDLADYFCQQYSNYLTFGAGTKLEVKR
Regarding B11, the expected percent binding with HCV Core1-169 [1], in the experiment with HCV Core1-169 [2], with HCV Core1-169 [3] and with HCV Core1-169 [4] was at most 1% throughout.

B12: HCV 208B-515 (antibody, V domains shown)
VH: QVQLQQPGAELVKPGASLKLSCRASGYTFTSYWIHWVKQRPGQGLEWIGEIDPSDSYTNYNQKFKGKATLTVDKSSRAAYMQLSSLTSEDSAVYYCARHYYGVFDSWGQGTKLTVSS
VL: QIVFTQYPAIMSASLGERVTMTCTASSSVTSSYLHWFQQKPGSSPKLWIYSTSNPGSGVPARFSGRGSGTSYSLSISSMEAEDAATYYCLQFHRSPWTFGGGTKLEIRR
In the case of B12, the expected percent binding with HCV Core1-169 [1], in the experiment with HCV Core1-169 [2], with HCV Core1-169 [3] and in the experiment with HCV Core1-169 [4] was at most 1% in each case.

B13: HCV 208A-126 (antibody, V domains shown)
VH: QLQQSGPVLVKPGASVMISCKTSGYTFTENAMHWVKQSHGKSLEWIGGVNPNNGDTIFNQKFKGKATLTVDKSSNTAFTELRSLPSEESTVYYCVRRGLDFFDYWGQGTSVTVSS
VL: DIVLTQSPASLAVSLGQRATISCRASQSVSTSRYSYMHWYQQKPGQPPKLLIKYASNLESGVPARFSGSGSGTDFTLNIHPVAEEDTAAYYCQHSWEFPFTFGSGTKLEIKR
On to B13, for which the expected percent binding with HCV Core1-169 [1] is 2%; in the experiment with HCV Core1-169 [2], 1.3%; with HCV Core1-169 [3], at most 1%; with HCV Core1-169 [4] it was 1.2%.

B14: HCV 208A-422 (antibody, V domains shown)
VH: DVQLQESGPGLVNPSQSLSLTCSVTGYSITSGYYWIWIQQSPGNKLEWMGYIKYDGGNNYSPSLKNRISIARDTSKNQCFLKLNSVTIEDTATYYCTRGSDSFDYWGQGTTLTVSS
VL: DIVLTQSPASLAVSLGQRAIISCKASQSVSFAGTNLMHWYQQKPGQQPKLLIYRASNLETGVPTRFSGSGSRTDFTLNIHPVEEDDAATYYCQQSREYYTFGGGTKLEIKR
On to B14, for which the expected percent binding with HCV Core1-169 [1], with HCV Core1-169 [2], with HCV Core1-169 [3] and in the experiment with HCV Core1-169 [4] was at most 1% each time.

B15: HCV 208A-442 (antibody, V domains shown)
VH: DVQLQESGPGLVNPSQSLSLTCSVTGYSITSGYYWIWIRQFPGNKLEWMGYIKYDGGNNYSPSLKNRISIARDTSKNQFFLKLNSVTIEDTATYYCTRGSDSFDYWGQGTTLTVSS
VL: DIVLTQSPASLAVSLGQRAIISCKASQSVSFAGTNLMHWYQQKPGQQPKLLIYRASNLETGVPTRFSGSGSRTDFTLNIHPVEEDDAATYYCQQSREYYTFGGGTKLEIKR
For B15, the expected percent binding is 1.6% with HCV Core1-169 [1], at most 1% with HCV Core1-169 [2], at most 1% with HCV Core1-169 [3] and at most 1% with HCV Core1-169 [4].

Values taken from patent publication US20170052184A1 (published 2017).
